Reference: patent publication US20040235117A1
“And” between values parts separate entries of the source, which are not always exact repeats. Equal values may be shown once. Blank lines part the entries; values can stand above or below the molecule they belong to.

Experiments:
[1] = molecular target: Flag-CD40L (AA 116 to 261) (human) (UniProt P29965); assay: competitive ELISA, CD40:Fc coated on the plate, sCD40L at constant concentration
[2] = molecular target: Flag-CD40L (AA 116 to 261) (human) (UniProt P29965); assay: competitive ELISA, CD40:Fc coated on the plate, sCD40L at constant concentration, protein A 1 ug/ml
[3] = molecular target: fusion protein (1), FasL trimer (flag sequence, linker, hFasL AA 139 to 281) (human) (UniProt P48023); assay: cell-based or functional assay
[4] = molecular target: TNF receptor 2 (TNF-R2) on CT6 cells (mouse (on CT6 cells of mice)) (UniProt P25119); assay: cell-based or functional assay
[5] = molecular target: fusion protein (5), TRAIL-ACRP30 (murine; human) (UniProt Q60994); assay: cell-based or functional assay
[6] = molecular target: fusion protein (3), super FasL (human) (UniProt P48023); assay: cell-based or functional assay
[7] = molecular target: fusion protein (1), FasL trimer (flag sequence, linker, hFasL AA 139 to 281) (human) (UniProt P48023); assay: BIAcore, 7 ul of 2.5 ug/ml Flag-FasL over immobilised M2 antibody
[8] = molecular target: TRAIL trimer (flag sequence, linker, hTRAIL AA 95 to 281) (human) (UniProt P50591); assay: BIAcore, 7 ul of 2.5 ug/ml Flag-TRAIL over immobilised M2 antibody
[9] = molecular target: fusion protein (1), FasL trimer (flag sequence, linker, hFasL AA 139 to 281) (human) (UniProt P48023); assay: cell-based or functional assay; remark: listed apart in the source
[10] = molecular target: fusion protein (1), FasL trimer (flag sequence, linker, hFasL AA 139 to 281) (human) (UniProt P48023); assay: BIAcore, Flag-FasL captured on an M2-modified CM5 chip; reference Fas:Fc
[11] = molecular target: fusion protein (1), FasL trimer (flag sequence, linker, hFasL AA 139 to 281) (human) (UniProt P48023); assay: BIAcore, Flag-FasL captured on an M2-modified CM5 chip, receptor fusion protein injected

Sequence of UniProt P50591 (P50591 other isoform, or with tags, fused parts or gaps limits assumed): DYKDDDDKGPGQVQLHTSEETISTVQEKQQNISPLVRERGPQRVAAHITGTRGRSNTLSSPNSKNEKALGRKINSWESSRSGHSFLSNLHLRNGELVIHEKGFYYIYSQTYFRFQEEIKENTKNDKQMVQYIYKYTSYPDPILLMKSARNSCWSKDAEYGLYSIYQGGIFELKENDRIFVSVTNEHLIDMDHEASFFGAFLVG
Sequence of UniProt P29965 (P29965 other isoform, or with tags, fused parts or gaps limits assumed): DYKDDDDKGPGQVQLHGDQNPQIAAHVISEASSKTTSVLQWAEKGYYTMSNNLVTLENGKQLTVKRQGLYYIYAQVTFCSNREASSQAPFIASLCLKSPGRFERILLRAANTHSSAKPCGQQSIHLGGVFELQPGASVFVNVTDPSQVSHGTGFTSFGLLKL
Sequence of UniProt Q60994 (Q60994 other isoform, or with tags, fused parts or gaps limits assumed): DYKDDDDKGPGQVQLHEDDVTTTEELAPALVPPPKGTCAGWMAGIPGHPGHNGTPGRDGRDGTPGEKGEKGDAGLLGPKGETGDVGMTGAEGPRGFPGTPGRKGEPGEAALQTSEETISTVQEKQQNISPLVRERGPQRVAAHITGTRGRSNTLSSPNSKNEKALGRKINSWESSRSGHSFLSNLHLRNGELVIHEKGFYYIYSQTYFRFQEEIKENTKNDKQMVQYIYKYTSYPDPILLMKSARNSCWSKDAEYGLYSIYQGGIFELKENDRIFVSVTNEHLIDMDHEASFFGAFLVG
Sequence of UniProt P25119 (P25119 23-474): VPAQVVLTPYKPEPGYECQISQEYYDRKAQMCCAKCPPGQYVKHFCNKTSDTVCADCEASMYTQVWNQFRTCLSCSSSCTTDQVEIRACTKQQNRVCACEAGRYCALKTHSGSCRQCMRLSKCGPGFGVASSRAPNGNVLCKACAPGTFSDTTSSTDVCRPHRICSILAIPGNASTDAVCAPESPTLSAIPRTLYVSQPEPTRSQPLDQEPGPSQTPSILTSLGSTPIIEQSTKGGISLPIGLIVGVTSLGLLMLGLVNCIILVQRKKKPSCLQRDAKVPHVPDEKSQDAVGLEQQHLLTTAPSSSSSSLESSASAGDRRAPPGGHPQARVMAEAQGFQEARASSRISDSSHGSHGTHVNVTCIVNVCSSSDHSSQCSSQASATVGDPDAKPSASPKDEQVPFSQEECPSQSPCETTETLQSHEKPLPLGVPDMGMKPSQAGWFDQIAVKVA

Molecule: CD40:COMP (receptor)
fold increase in the affinity (against CD40:Fc) [1]: 30 fold

Molecule: fusion protein (6), TNFα-ACRP30 (from UniProt Q60994 18-111; P06804 77-235) (ligand)
3[H]-thymidin incorporation into CT6 cells (cell proliferation) [4]: 5 ng/mL

Molecule: anti-flag M2 monoclonal antibody
cytotoxic assay on Jurkat cells, fold increase of apoptosis-inducing activity [5]: > 10 fold
cytotoxic assay on A20 and Jurkat cells, fold increase of apoptotic activity [6]: 2 fold and > 1.5 fold
units bound (BIAcore response) [7]: 100 to 150 units
units bound (BIAcore response) [8]: 100 to 150 units

B1: Fas:COMP (receptor, not shown: small tags and cut ends)
chain: QVTDINSKGLELRKTVTTVETQNLEGLHHDGQFCHKPCPPGERKARDCTVNGDEPDCVPCQEGKEYTDKAHFSSKCRRCRLCDEGHGLEVEINCTRTQNTKCRCKPNFFCNSTVCEHCDPCTKCEHGIIKECTLTSNTKCKEEGSPQPQPKPQPKPEPEGGCCQMLRELQETNAALQDVRELLRHRVKEITFLKNTVMECDACGMQPARTPGGGS
modifications: Assembles as a disulphide-linked pentamer through the COMP coiled coil (about 400 kDa by gel filtration). N-glycosylated.
inhibitory activity in cytotoxicity tests on cell lines, fold over Fas:Fc [9]: 10 to 20 fold
fold lower dissociation constant than Fas:Fc [10]: 8 to 9 fold
Kd [11]: 0.77 nM

Further lines, results first:

fold increase in the affinity (against CD40:Fc) [2]: 8 fold
Molecule: CD40:Fc/PA (from UniProt P25942 21-193) (Fc fusion)

inhibition of sFasL-mediated lysis, fold less effective than Fas:COMP [3]: 5 fold
Molecule: Fas:CMP (from UniProt P25445 1-170) (receptor)
